Experimental data as given in the supplement of paper PMC10567573.

B1: KRT34 (parent)
chain: PTVDLNQVLNETRSQYEALVETNR

Variants of: B1
Assay: protein stability index of a GFP-peptide fusion (GPS, HEK-293T) (PSI 1-6); higher = more stable
Conditions: c terminus: a fixed tail appended
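Note: lentivirally expressed fusions sorted by FACS into six bins by GFP to DsRed ratio, PSI derived from sequencing read proportions per bin multiplied by bin number.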

Protein stability index, by site and new letter:
P1: W 2.95; Y 2.84; C 2.77; D 4.12; H 3.97; K 3.83; E 2.82; R 3.43; I 2.42; T 3.96; F 3.22; S 3.82; M 3.31; G 3.5; N 3.21
D4: H 3.56; E 4.01; N 4.38; Y 3.44; S 2.73; R 4.48; Q 4.34; A 4.21; F 3.19; P 3.05
N23: A 4.03; W 2.53; K 3.95; L 2.41; M 3.12; E 5.16; S 4.39; C 3.47; H 4.05; V 3; Q 4.52; G 4.04; P 4.04
V8: T 3.76; I 3.57; K 4.22; H 3.52; D 4.64; C 3.48; L 1.43; N 4.58; R 4.67; Y 2.29; G 4.2; A 3.56; Q 4.3
T22: C 3.62; P 4.28; M 3.19; S 4.36; A 4.01; R 4.46; G 4.41; V 1.71; Y 4.23; K 3.66
A18: V 4.01; G 4.03; E 3.69; Q 3.78; R 2.31; F 3.59; T 3.81; N 3.3; K 3.16; Y 3.6; H 4.4; D 3.92; W 3.5; S 3.32
S14: G 3.56; H 3.32; Q 2.34; I 2.44; L 2.12; C 2.25; F 3.3; T 2.96; W 2.74; Y 3.33; K 2.47; D 2.87; R 2.15; A 2.09; P 4.1
R13: A 3.85; K 3.31; V 3.42; I 2.83; Y 3.64; E 5.07; S 4.67; L 3.34; P 4.79; W 3.71; Q 3.97; D 5.18; N 5.01
V3: A 3.63; D 4.76; F 3.65; W 5.02; M 2.45; S 4.28; R 2.92; N 4.46; L 2.65; P 4.62; K 2.76; C 4.07; I 3.7; Y 2.83
V20: I 4; C 3.68; K 4.86; Q 4.5; E 3.52; W 3.83; M 3.58; P 4.91; N 4.42; Y 4.09; A 2.68; F 3.64; S 3.98; H 4.77; L 4.04; T 4.25
Q7: P 4.79; A 3.13; T 2.75; W 3.08; M 3.62; R 3.65; E 3.25; L 4.08; C 3.95; D 3.66; I 2.99; N 3.92; G 4.25
T12: V 3.04; G 4.39; A 1.8; I 1.84; R 4.28; D 5.22; K 4; S 3.54; Q 2.21; N 4.03; P 4.12; E 4.27; C 3.49
Q15: K 3.89; N 4.02; A 4; G 4.19; E 4.16; L 2.25; F 2.82; I 2.96; S 4.38; P 4.34; M 2.35; C 2.94; R 4.16; Y 2.91; D 5.05
E21: A 3.84; V 3.49; S 4.02; W 2.62; G 4.06; I 3.23; F 2.74; M 3.92; R 3.62; H 3.76; K 4.3; N 3.83; C 3.55; L 3.56; Q 4.3
R24: A 3.51; N 4.74; F 2.5; D 4.95; W 3.55; P 4.58; E 3.88; G 4.17; S 4.81; C 2.56; T 3.8; Y 2.29; M 2.51; K 4.32
E11: F 3.22; P 4.1; I 3.42; G 4.05; Y 3.72; V 4.44; N 3.69; L 3.36; S 3.85; K 3.79; T 3.78; M 3.95; A 4.06; Q 3.93
T2: Y 1.65; L 1.85; D 3.82; Q 2.71; C 2.67; E 2.78; W 1.4; N 3.72; S 3.27; M 1.85; V 2.52; I 2.99; R 3.66; P 3.01
L5: E 4.61; V 2.86; T 4.8; A 2.51; D 4.67; P 3.77; S 4.13; G 4.68; H 3.8; F 3.92; M 4.24; Y 2.77; K 4.8
N6: D 2.79; A 2.48; S 3.33; F 2.42; H 2.92; W 2.5; K 2.98; E 2.56; P 4.8; T 3.05; M 1.9; V 2; R 3.9; I 2.03; C 2.51
N10: A 2.44; V 3.21; R 3.21; Y 2.91; E 2.41; G 4.35; Q 2.5; D 3.74; M 2.49; C 2.82; P 4.55; S 3.46; K 2.7; I 2.47
E17: W 3.35; P 3.62; D 4.67; N 4.05; L 3.85; I 2.71; V 3.7; K 4.12; F 3.08; A 3.77; H 3.93; Y 3.22; R 3.83; M 3.68; S 3.85
L9: C 4.45; A 4.09; W 4.04; K 4.45; R 4.36; F 3.45; G 4.64; N 4.76; T 4.61; I 3.14; Q 3.36; E 4.52; S 5.03; P 5.34
L19: E 5.63; Q 4.63; P 4.7; I 4.16; C 4.72; F 3.51; V 4.44; M 3.84; R 4.81; W 3.98; A 4.47; N 5.01; T 4.5; S 4.99; D 5.03; Y 4.39
Y16: T 4.58; C 4.44; M 4.76; N 4.99; S 4.98; F 3.65; A 5.1; E 5.44; R 5.42; Q 5.57; W 3.63; I 4.23; P 4.8; K 4.57; V 4.9; G 4.89
